Data from patent publication US20230131727A1 (Janssen / Centocor, published 2023).

Key:
[1] = target: T1, human PSMA (prostate-specific membrane antigen) on cells (human, UniProt Q04609 1-750); assay: cell-based or functional assay
[2] = target: T1, human PSMA (prostate-specific membrane …); assay: cell-based or functional assay; remark: listed apart in the source

T1 sequence (Q04609 whole entry): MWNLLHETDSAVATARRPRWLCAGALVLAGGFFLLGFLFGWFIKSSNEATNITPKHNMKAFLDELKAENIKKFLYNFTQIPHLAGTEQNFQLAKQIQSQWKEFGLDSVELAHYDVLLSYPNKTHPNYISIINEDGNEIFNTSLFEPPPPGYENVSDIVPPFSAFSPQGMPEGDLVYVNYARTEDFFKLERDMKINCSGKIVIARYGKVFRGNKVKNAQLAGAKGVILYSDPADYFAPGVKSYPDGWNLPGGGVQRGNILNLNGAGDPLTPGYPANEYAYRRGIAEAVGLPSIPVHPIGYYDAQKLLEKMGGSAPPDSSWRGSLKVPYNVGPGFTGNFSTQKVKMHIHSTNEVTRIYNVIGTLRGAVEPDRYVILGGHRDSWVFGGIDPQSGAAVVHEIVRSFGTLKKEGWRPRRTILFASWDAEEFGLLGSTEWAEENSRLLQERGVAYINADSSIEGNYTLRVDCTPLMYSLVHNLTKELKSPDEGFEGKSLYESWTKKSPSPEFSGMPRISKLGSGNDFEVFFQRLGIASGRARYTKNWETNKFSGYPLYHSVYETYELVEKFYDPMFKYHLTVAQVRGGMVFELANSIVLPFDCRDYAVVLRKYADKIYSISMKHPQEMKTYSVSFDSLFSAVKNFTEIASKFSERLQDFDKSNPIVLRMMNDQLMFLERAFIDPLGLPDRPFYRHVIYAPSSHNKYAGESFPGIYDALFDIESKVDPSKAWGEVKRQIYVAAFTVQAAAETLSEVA

B1: PSMB1156 conjugated to maleimide-PEG4-vcPAB-MMAF (ADC) (antibody, human IgG1, lambda, V domains shown)
VH: EVQLVESGGGVVQPGRSLRLSCAASGFTFTSYGMHWVRQAPGKGLEWVAVISYDGSNKYYADSVKGRFTISRDNSKNTLYLQMNSLRAEDTAVYYCAREHYDSSGYYHGYYGMDVWGQGTTVTVSS
VL: not shown
modifications: reduced cysteines carry maleimide-PEG4-vcPAB-MMAF or N-ethyl maleimide; sites not given
In the case of B1, the “C4-2B IC50” value [1] is reported as 0.04 nM and the “MMAF IC25 (nM), 22RV1 cells” value [2] is reported as 0.9 nM.

B2: PSMB1156 conjugated to MC-GGFG-DX8951 (ADC) (antibody, human IgG1, lambda, DAR 8, V domains shown)
VH: EVQLVESGGGVVQPGRSLRLSCAASGFTFTSYGMHWVRQAPGKGLEWVAVISYDGSNKYYADSVKGRFTISRDNSKNTLYLQMNSLRAEDTAVYYCAREHYDSSGYYHGYYGMDVWGQGTTVTVSS
VL: not shown
modifications: reduced cysteines carry MC-GGFG-DX8951; DAR 8.0
With B2 the “DX8951 IC50 (nM), 22RV1 cells” value [2] was 1.4 nM.

B3: PSMB1183 conjugated to maleimide-PEG4-vcPAB-MMAF (ADC) (antibody, human IgG1, lambda, V domains shown)
VH: QVQLQESGPGLVKSSETLSLTCTVSGGSISSYYWNWIRQPAGKGLEWIGRIYSSGNTDYNPSLKSRVTMSVDTSKNQFSLKLISVTAADTAVYYCARGRGANVGLFDYWGQGTLVTVSS
VL: QSALTQPPSVSGAPGQRVTISCTGSNSNIGANYDVHWYQHLPGTAPKLLIYGNINRPLGVPDRFSGSRSGTSASLAITGLQAEDEADYYCQSYDFSLSGSVFGVGTKLTVLG
modifications: reduced cysteines carry maleimide-PEG4-vcPAB-MMAF or N-ethyl maleimide; sites not given
With B3 the “C4-2B IC50” value [1] was 0.03 nM.

B4: PSMB1183 conjugated to MC-GGFG-DX8951 (ADC) (antibody, human IgG1, lambda, DAR 8, V domains shown)
VH: QVQLQESGPGLVKSSETLSLTCTVSGGSISSYYWNWIRQPAGKGLEWIGRIYSSGNTDYNPSLKSRVTMSVDTSKNQFSLKLISVTAADTAVYYCARGRGANVGLFDYWGQGTLVTVSS
VL: QSALTQPPSVSGAPGQRVTISCTGSNSNIGANYDVHWYQHLPGTAPKLLIYGNINRPLGVPDRFSGSRSGTSASLAITGLQAEDEADYYCQSYDFSLSGSVFGVGTKLTVLG
modifications: reduced cysteines carry MC-GGFG-DX8951; DAR 8.0
For B4, the “DX8951 IC50 (nM), 22RV1 cells” value [2] was 0.7 nM.

B5: PSMB1154 conjugated to maleimide-PEG4-vcPAB-MMAF (ADC) (antibody, human IgG1, lambda, V domains shown)
VH: EVQLVESGGGEVQPGRSLRLTCAVSGFTLSRYGMHWVRQAPGKGLEWAALISYDGSNRYYADSVKGRFTISRDNSKNTVFLQMNSLRAEDTAVYYCARERESSGWFEGYFDYWGQGTTVTVSS
VL: QLVLTQPPSVSVAPGQTARITCGGNNIGSKSVHWYQQKPGQAPVLVVYDNSDRPSGIPERFSGSNSGNTATLTISRVEVGDEADYYCQVWDSSSDHVVFGGGTKLTVLG
modifications: reduced cysteines carry maleimide-PEG4-vcPAB-MMAF or N-ethyl maleimide; sites not given
B5 was tested, and the “C4-2B IC50” value [1] was 0.03 nM and the “MMAF IC25 (nM), 22RV1 cells” value [2] was 0.1 nM.

B6: PSMB1154 conjugated to MC-GGFG-DX8951 (ADC) (antibody, human IgG1, lambda, DAR 8, V domains shown)
VH: EVQLVESGGGEVQPGRSLRLTCAVSGFTLSRYGMHWVRQAPGKGLEWAALISYDGSNRYYADSVKGRFTISRDNSKNTVFLQMNSLRAEDTAVYYCARERESSGWFEGYFDYWGQGTTVTVSS
VL: QLVLTQPPSVSVAPGQTARITCGGNNIGSKSVHWYQQKPGQAPVLVVYDNSDRPSGIPERFSGSNSGNTATLTISRVEVGDEADYYCQVWDSSSDHVVFGGGTKLTVLG
modifications: reduced cysteines carry MC-GGFG-DX8951; DAR 8.0
With B6 the “DX8951 IC50 (nM), 22RV1 cells” value [2] was 0.8 nM.

B7: PSMB1157 conjugated to maleimide-PEG4-vcPAB-MMAF (ADC) (antibody, human IgG1, lambda, V domains shown)
VH: EVQLVESGGGVVQPGRSLRLSCAASVRTFSGYGMHWVRQVPGKGLEWVAVISYDGSNRYYADSVKGRFTISRDNSKNTLYLQMNSLRTEDTAVYYCARDGNWGSLDLYFDLWGRGTLVTVSS
VL: QSVLTQPPSVSGAPGQRVTISCTGSSSNIGADYDVHWYQQLPGTAPKLLIYVNNNRPSGVPDRFSGSRSGTSASLAITGLQADDEADYYCQSYDNTLSGVVFGGGTKLTVLG
modifications: reduced cysteines carry maleimide-PEG4-vcPAB-MMAF or N-ethyl maleimide; sites not given
With B7 the “C4-2B IC50” value [1] was 0.03 nM and the “MMAF IC25 (nM), 22RV1 cells” value [2] was 0.4 nM.

B8: PSMB1157 conjugated to MC-GGFG-DX8951 (ADC) (antibody, human IgG1, lambda, DAR 8, V domains shown)
VH: EVQLVESGGGVVQPGRSLRLSCAASVRTFSGYGMHWVRQVPGKGLEWVAVISYDGSNRYYADSVKGRFTISRDNSKNTLYLQMNSLRTEDTAVYYCARDGNWGSLDLYFDLWGRGTLVTVSS
VL: QSVLTQPPSVSGAPGQRVTISCTGSSSNIGADYDVHWYQQLPGTAPKLLIYVNNNRPSGVPDRFSGSRSGTSASLAITGLQADDEADYYCQSYDNTLSGVVFGGGTKLTVLG
modifications: reduced cysteines carry MC-GGFG-DX8951; DAR 8.0
In the case of B8, the “DX8951 IC50 (nM), 22RV1 cells” value [2] is reported as 2.2 nM.
